Two molecules from patent publication US20190359710A1 can be followed below.

Assay [1] deals with CD33 and CD123 together on double-positive human AML cells. As to the kind of experiment: cell-based or functional assay.
For assay [2] the target is unchanged. As to the kind of experiment: calibrated flow cytometry on MOLM13 cells (CD33/CD123 double-positive).

B1: single chain triplebody SPM-2, hu(33-ds16-ds123RK) (protein)
chain: EVQLVESGGGLIQPGGSLRLSCAASGFPLTSYGVSWVRQPPGKGLEWLGVIWGDGSTNYHSALISRFTISRDNSKNTLYLQMNSLRAEDTAVYYCARDTYYPYYAMDYWGQGTTVTVSSGGGGSGGGGSGGGGSDIQMTQSPSSLSASVGDRVTITCKASQDVSTAVAWYQQKPGKAPKLLIYSASYRYTGVPSRFSGSGSGTDFTLTISSLQPEDFATYYCQQHYSTPLTFGQGTKLEIKRGGGGSGGGGSGGGGSGGGGSDIVLTQSPSSLSASVGDRVTITCKASQSVDFDGDSFMNWYQQKPGKAPKLLIYTTSNLESGVPSRFSASGSGTDFTLTISSLQPEDFATYYCQQSNEDPYTFGCGTKVEIKRGGGGSGGGGSGGGGSGGGGSEVQLVESGGGDVQPGGSLRLSCAFSGFSLRTSGMGVGWIRQAPGKCLEWVAHIWWDDDKRYNPSVKGRFTISKDTSSNTVYLQMNSLRAEDTAVYYCAQINPAWFAYWGQGTLVTVSSGGGGSGGGGSGGGGSGGGGSEVQLVESGGGLVQPGGSLRLSCAASGFTFTDYYMSWVRQAPGKCLEWLALIRSKADGYTTEYSASVKGRFTISRDDSKNSLYLQMNSLKTEDTAVYYCARDAAYYSYYSPEGAMDYWGQGTSVTVSSGGGGSGGGGSGGGGSDIQMTQSPSSLSASVGDRVTITCKASQNVDSAVAWYQQKPGKAPKALIYSASYRYSGVPSRFSGSGSGTDFTLTISSLQPEDFATYYCQQYYSTPWTFGCGTKVEIKRGGGGSHHHHHH
Take B1: in assay [1], the % specific lysis of MOLM-13 cells at 1 nM SPM-2, 4 hr time point is 30.7%; the Biol. Activity EC50 [pM], redirected lysis (RDL), 3 h, E:T=10:1 (MNC:MOLM-13) was 14 pM; the EC50 (pM), RDL cytolysis of primary MNCs of AML patient P1 with LAK cells worked out at 131 pM; the EC50 (pM), RDL cytolysis of primary MNCs of AML patient P2 with LAK cells stood at 20 pM. In assay [1], this molecule had an EC50 (pM), RDL cytolysis of primary MNCs of AML patient P3 with LAK cells of 67 pM; an EC50 (pM), RDL cytolysis of primary MNCs of AML patient P4 with LAK cells of 32 pM; an EC50 (pM), RDL cytolysis of primary MNCs of AML patient P5 with LAK cells of 242 pM; an EC50 (pM), RDL cytolysis of primary MNCs of AML patient P6 with LAK cells of 155 pM. In assay [1], this molecule showed an EC50 (pM), RDL cytolysis of primary MNCs of AML patient P7 with LAK cells of 79 pM; an EC50 (pM), RDL cytolysis of primary MNCs of AML patient P8 with LAK cells of 133 pM; an EC50 (pM), RDL cytolysis of primary MNCs of AML patient P9 with LAK cells of 166 pM; an EC50 (pM), RDL cytolysis of primary MNCs of AML patient P10 with LAK cells of 51 pM. Besides, in assay [1], the EC50 (pM), RDL cytolysis of primary MNCs of AML patient P11 with LAK cells was 1080 pM; the EC50 (pM), RDL cytolysis of primary MNCs of AML patient P12 with LAK cells is 38 pM; the EC50 (pM), RDL cytolysis of primary MNCs of AML patient P13 with LAK cells turned out to be 245 pM; the EC50 (pM), RDL cytolysis of primary MNCs of AML patient P14 with LAK cells was 229 pM. Also, in assay [1], the EC50 (pM), RDL cytolysis of primary MNCs of AML patient P15 with LAK cells was 177 pM; the EC50 (pM), RDL cytolysis of primary MNCs of AML patient P16 with LAK cells was determined as 758 pM; the EC50 (pM), RDL cytolysis of primary MNCs of AML patient P17 with LAK cells is 125 pM; the EC50 (pM), RDL cytolysis of primary MNCs of AML patient P18 with LAK cells worked out at 221 pM. In assay [1], the EC50 (pM), RDL cytolysis of primary MNCs of AML patient P19 with LAK cells was determined as 406 pM; the EC50 (pM), RDL cytolysis of primary MNCs of AML patient P20 with LAK cells is 251 pM; the EC50 (pM), RDL cytolysis of primary MNCs of AML patient P21 with LAK cells came out at 22 pM; the EC50 (pM), RDL cytolysis of primary MNCs of AML patient P22 with LAK cells amounted to 225 pM. In assay [1], the EC50 (pM), RDL cytolysis of primary MNCs of AML patient P23 with LAK cells was 476 pM; the EC50 (pM), RDL cytolysis of primary MNCs of AML patient P24 with LAK cells came to 127 pM; the EC50 (pM), RDL cytolysis of primary MNCs of AML patient P25 with LAK cells was 541 pM; the EC50 (pM), RDL cytolysis of primary MNCs of AML patient P26 with LAK cells came out at 58 pM. In assay [1], the EC50 (pM), RDL cytolysis of primary MNCs of AML patient P27 with LAK cells was found to be 10 pM; the EC50 (pM), RDL cytolysis of primary MNCs of AML patient P28 with LAK cells was 560 pM; the EC50 (pM), RDL cytolysis of primary MNCs of AML patient P29 with LAK cells was 70 pM; the EC50 (pM), RDL lysis of CD34-enriched MNCs of AML patient P9 is 43 pM. In assay [1], this molecule showed an EC50 (pM), RDL lysis of CD34-enriched MNCs of AML patient P11 of 681 pM and an EC50, standard RDL assay, MOLM-13 targets, thawed LAK cells, 4 hr, MNC:Target 10:1 of 0.024 nM.

B2: candidate triplebody hu[33-ds16-ds123RK] before polishing of the sequence (protein, not shown: small tags and cut ends)
chain: EVQLVESGGGLIQPGGSLRLSCAASGFPLTSYGVSWVRQPPGKGLEWLGVIWGDGSTNYHSALISRFTISRDNSKNTLYLQMNSLRAEDTAVYYCARDTYYPYYAMDYWGQGTTVTVSSGGGGSGGGGSGGGGSDIQMTQSPSSLSASVGDRVTITCKASQDVSTAVAWYQQKPGKAPKLLIYSASYRYTGVPSRFSGSGSGTDFTLTISSLQPEDFATYYCQQHYSTPLTFGQGTKLEIKRGGGGSGGGGSGGGGSGGGGSDIVLTQSPSSLSASVGDRVTITCKASQSVDFDGDSFMNWYQQKPGKAPKLLIYTTSNLESGVPSRFSASGSGTDFTLTISSLQPEDFATYYCQQSNEDPYTFGCGTKVEIKRGGGGSGGGGSGGGGSGGGGSEVQLVESGGGDVQPGGSLRLSCAFSGFSLRTSGMGVGWIRQAPGKCLEWVAHIWWDDDKRYNPSVKGRFTISKDTSSNTVYLQMNSLRAEDTAVYYCAQINPAWFAYWGQGTLVTVSSGGGGSGGGGSGGGGSGGGGSEVQLVESGGGLVQPGGSLRLSCAASGFTFTDYYMSWVRQAPGKCLEWLALIRSKADGYTTEYSASVKGRFTISRDDSKNSLYLQMNSLKTEDTAVYYCARDAAYYSYYSPEGAMDYWGQGTSVTVSSGGGGSGGGGSGGGGSDIQMTQSPSSLSASVGDRVTITCKASQNVDSAVAWYQQKPGKAPKALIYSASYRYSGVPSRFSGSGSGTDFTLTISSLQPEDFATYYCQQYYSTPWTFGCGTKVEIKR
In the case of B2, the Kd in assay [2] worked out at 11 nM.

A word on the Kd: it is the constant that tells how readily two partners part at equilibrium. A high value points to weaker binding.
